From US20210130473A1 (SILVERBACK THERAPEUTICS, published 2021)
Where two headings read alike, the source gives them in different places.

How the values were obtained:
[1] = biological target: T1, rat ASGR1 on CHO-S cells (rat, UniProt P02706 1-284); experiment: Guava flow cytometry on CHO-S cells expressing rat ASGR1
T1 construct: whole, on cells
T1 sequence (looked up): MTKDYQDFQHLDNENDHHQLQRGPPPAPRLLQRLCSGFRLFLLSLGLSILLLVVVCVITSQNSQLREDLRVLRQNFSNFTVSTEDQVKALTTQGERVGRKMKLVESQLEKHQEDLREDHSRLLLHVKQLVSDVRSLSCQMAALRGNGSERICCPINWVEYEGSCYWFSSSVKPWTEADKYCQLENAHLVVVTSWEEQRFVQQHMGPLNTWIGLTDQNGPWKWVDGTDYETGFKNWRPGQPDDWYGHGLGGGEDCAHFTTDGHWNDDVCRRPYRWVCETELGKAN
Experimental: (§1) Anti-human ASGR1 antibodies of this disclosure were examined for cross-reactivity with Cynomolgus macaque and rat ASGR1. Briefly, sequence encoding Cynomolgus macaque or rat ASGR1 was transiently transfected into CHO-S cells. Transfected cells were before performing cell binding assay. A total of about 1.5×10⁴ transfected cells/well were added to 96-well V-bottom assay plate, incubated at 37° C., 5% CO2 for 48-72 hours, and then washed with culture medium before adding 100 μl of each ASGR1 antibody at different concentrations starting from 100 nM and 3-fold dilutions to a total of eight wells. The cells with antibody were incubated for 40 minutes at 4° C., then washed three times with 200 μl of fresh culture medium. To each well was added 50 μl PE conjugated goat anti-human Fc (SouthemBiotech) at 1:200 dilution in culture medium and then incubated at 4° C. for 20 minutes. After washing the plate once, the treated cells were resuspended in 200 μl culture medium and then the stained cells were analyzed on GUAVA® using Incyte software.

[2] = biological target: T2, Cynomolgus macaque ASGR1 on CHO-S cells (Cynomolgus macaque); experiment: Guava flow cytometry on CHO-S cells expressing cynomolgus ASGR1
T2 construct: whole, on cells; also called Cynomologous ASGR1
Experimental: as §1

[3] = biological target: T1, rat ASGR1 on CHO-S cells; experiment: Guava flow cytometry on CHO-S cells expressing rat ASGR1 (repeat of Table 16)
Experimental: as §1, with “Briefly,” for “Anti-human ASGR1 antibodies of this disclosure were examined for cross-reactivity with Cynomolgus macaque and rat ASGR1. Briefly,”, “(SouthernBiotech)” for “(SouthemBiotech)”
as §1

[4] = biological target: T3, human ASGR1 (asialoglycoprotein receptor 1) on cells (human, UniProt P07306 1-291); experiment: flow cytometry on HepG2 cells, anti-human IgG PE secondary, MFI (Geo Mean)
T3 construct: whole, on cells; also called HepG2 cells; CHO-S cells transfected with human ASGR1 full length DNA
T3 sequence (looked up): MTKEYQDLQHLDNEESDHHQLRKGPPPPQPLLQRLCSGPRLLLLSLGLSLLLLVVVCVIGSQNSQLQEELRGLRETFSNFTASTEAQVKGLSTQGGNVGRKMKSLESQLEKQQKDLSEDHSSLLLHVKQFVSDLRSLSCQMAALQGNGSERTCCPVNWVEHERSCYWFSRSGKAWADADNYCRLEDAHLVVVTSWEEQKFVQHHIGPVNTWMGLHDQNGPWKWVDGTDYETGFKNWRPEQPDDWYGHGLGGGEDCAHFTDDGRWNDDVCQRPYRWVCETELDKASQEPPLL
Experimental: Briefly, 5×10⁴ HepG2 cells/well were contacted with titrating concentrations of anti-ASGR1 antibodies in FACS Buffer (FB: PBS+2% FBS+1 mM CaCl₂)) for 30 minutes at 4° C. Cells were washed twice in FB, then incubated in anti-human IgG PE secondary for 30 minutes at 4° C. Cells were washed twice in FB, then analyzed by flow cytometry.

[5] = biological target: T2, Cynomolgus macaque ASGR1 on CHO-S cells; experiment: Guava flow cytometry on CHO-S cells expressing cynomolgus ASGR1 (repeat of Table 15)
Experimental: as §1

[6] = biological target: T3, human ASGR1 (asialoglycoprotein …); experiment: competition flow cytometry on CHO-S cells with human ASGR1; 200 nM F(ab')2 against 33 nM GalNac-hFc
[7] = biological target: T3, human ASGR1 (asialoglycoprotein …); experiment: Guava flow cytometry screen on HepG2 cells
[8] = biological target: T3, human ASGR1 (asialoglycoprotein …); experiment: Guava flow cytometry screen on HepG2 cells; remark: listed apart in the source

B1: K2E (antibody, V domains shown)
VH: QVQLQQSAAELARPGASVKMSCKASGYTFTSYTMHWVKQRPGQGLEWIGYISPSSGYTEYNQKFKDKTTLTADKSSSTAYMQLSSLTSEDSAVYYCARKFDYWGQGTTLTVSS
VL: DIKMTQSPSSMYASLGERVTITCKASQDINSYLSWFQQKPGKSPKTLIYRANRLVDGVPSRFSGSGSGQDFSLTISSLEYEDMGIYYCLQYDEFPFTFGSGTKLEIK
notes: parental mouse hybridoma antibody; also called mAb K2E
In the case of B1, the EC50 [1] is reported as 0.52 nM, the EC50 [2] is reported as 0.68 nM and the EC50 [3] is reported as 0.52 nM. The “EC50 (read off the curve)” value [4] was ~0.3 µg/mL and the EC50 [5] was 0.68 nM.

B2: ASGR1 mAb-C (antibody, V domains shown)
VH: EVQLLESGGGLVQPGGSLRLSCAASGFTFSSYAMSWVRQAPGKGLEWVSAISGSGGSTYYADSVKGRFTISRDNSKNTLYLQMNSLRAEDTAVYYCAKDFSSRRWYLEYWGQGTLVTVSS
VL: SSELTQDPAVSVALGQTVRITCQGDSLRSYYASWYQQKPGQAPVLVIYGKNNRPSGIPDRFSGSSSGNTASLTITGAQAEDEADYYCNSLERIGYLSYVFGGGTKLTVL
notes: control with CDRs of anti-ASGR1 antibody 4F3; mouse IgG2a or human IgG1 isotype by assay; also called 4F3
In the case of B2, the EC50 [2] is reported as 2.35 nM, the “EC50 (read off the curve)” value [4] is reported as ~0.3 µg/mL and the EC50 [5] is reported as 2.35 nM.

B3: F(ab')2 fragment of hzH8K-1 (F(ab')2)
VH: QVQLQESGPGLVKPSQTLSLTCTVSGGSISSDYAWNWIRQHPGKGLEWIGYRSYRGSTSYNPSLKSRVTISVDTSKNQFSLKLSSVTAADTAVYYCARRGYYGSSSHWYFDVWGQGTTVTVSS
VL: DIQMTQSPSSLSASVGDRVTITCRASENIYSYLAWYQQKPGKAPKLLIYNAKTLAEGVPSRFSGSGSGTDFTLTISSLQPEDFATYYCQHHYGTPLTFGGGTKVEIK
B3 was tested, and the “% Blocking GalNac Binding” value [6] was 81.3%.

B4: hzL4L-5 (antibody, IgG1, V domains shown)
VH: QVQLQESGPGLVKPSQTLSLTCTVSGYSISSDYAWNWIRQHPGKGLEWIGYISYSGSTRYNPSLKSRISITRDTSKNQFSLKLSSVTAADTAVYYCARRYRYDEGYGMDYWGQGTTVTVSS
VL: DIQMTQSPSSLSASVGDRVTITCRASENIYSNLAWYQQKPGKAPKLLIYAATNLADGVPSRFSGSGSGTDFTLTISSLQPEDFATYYCQHFWGTPPWTFGGGTKVEIK
notes: IgG1, kappa
B4: binds [7].

B5: F(ab')2 fragment of hzL4L-14 (F(ab')2)
VH: QVQLQESGPGLVKPSQTLSLTCTVSGYSISSDYAWNWIRQHPGKGLEWIGYISYSGSTRYNPSLKSRVTITRDTSKNQFSLKLSSVTAADTAVYYCARRYRYDEGYGMDYWGQGTTVTVSS
VL: DIQMTQSPSSLSASVGDRVTITCRASENIYSNLAWYQQKPGKAPKLLIYAATNLAEGVPSRFSGSGSGTDFTLTISSLQPEDFATYYCQHFWGTPPWTFGGGTKVEIK
B5 was tested, and the “% Blocking GalNac Binding” value [6] was 90.7%.

B6: hzL4L-2 (antibody, IgG1, V domains shown)
VH: QVQLQESGPGLVKPSQTLSLTCTVSGGSITSDYAWNWIRQHPGKGLEWIGYISYSGSTRYNPSLKSRISITRDTSKNQFSLKLSSVTAADTAVYYCARRYRYDEGYGMDYWGQGTTVTVSS
VL: DIQMTQSPSSLSASVGDRVTITCRASENIYSNLAWYQQKPGKAPKLLIYAATNLADGVPSRFSGSGSGTDFTLTISSLQPEDFATYYCQHFWGTPPWTFGGGTKVEIK
notes: IgG1, kappa
B6: binds [7].

B7: hzL4L-6 (antibody, IgG1, V domains shown)
VH: QVQLQESGPGLVKPSQTLSLTCTVSGYSITSDYAWNWIRQHPGKGLEWIGYISYSGSTRYNPSLKSRVTITRDTSKNQFSLKLSSVTAADTAVYYCARRYRYDEGYGMDYWGQGTTVTVSS
VL: DIQMTQSPSSLSASVGDRVTITCRASENIYSNLAWYQQKPGKAPKLLIYAATNLADGVPSRFSGSGSGTDFTLTISSLQPEDFATYYCQHFWGTPPWTFGGGTKVEIK
notes: IgG1, kappa
B7: binds [7].

B8: hzL4L-10 (antibody, IgG1, V domains shown)
VH: QVQLQESGPGLVKPSQTLSLTCTVSGYSITSDYAWNWIRQHPGKGLEWIGYISYSGSTRYNPSLKSRISITRDTSKNQFSLKLSSVTAADTAVYYCARRYRYDEGYGMDYWGQGTTVTVSS
VL: DIQMTQSPSSLSASVGDRVTITCRASENIYSNLAWYQQKPGKAPKLLIYAATNLASGVPSRFSGSGSGTDFTLTISSLQPEDFATYYCQHFWGTPPWTFGGGTKVEIK
notes: IgG1, kappa
B8: binds [7].

B9: hzG2D-11 (antibody, human IgG1, kappa)
heavy: not shown
light: DIQMTQSPSSLSASVGDRVTITCKASQVINSYLSWFQQKPGKAPKSLIYRANTLVDGVPSRFSGSGSGTDFTLTISSLQPEDFATYYCLQYAEFPYTFGGGTKVEIKRTVAAPSVFIFPPSDEQLKSGTASVVCLLNNFYPREAKVQWKVDNALQSGNSQESVTEQDSKDSTYSLSSTLTLSKADYEKHKVYACEVTHQGLSSPVTKSFNRGEC
B9: binds [8].

B10: hzG2D-20 (antibody, human IgG1, kappa)
heavy: not shown
light: DIQMTQSPSSLSASVGDRVTITCKASQVINSYLSWFQQKPGKAPKSLIYRANTLVDGVPSRFSGSGSGTDFTLTISSLQPEDFATYYCLQYAEFPYTFGGGTKVEIKRTVAAPSVFIFPPSDEQLKSGTASVVCLLNNFYPREAKVQWKVDNALQSGNSQESVTEQDSKDSTYSLSSTLTLSKADYEKHKVYACEVTHQGLSSPVTKSFNRGEC
B10: binds [8].

B11: F(ab')2 fragment of G2D (F(ab')2)
VH: EVQLQQSGPELVKPGASVKISCKASGYSFTGYYMHWVKQSHVKSLEWIGRINPNNGATNYNQNFKDKASLTVDKSSSTAYMEFHSLTSEDSAVYYCTSVNFYYWGQGTTLTVSS
VL: DIKMTQSPSSMYASLGERVTITCKASQVINSYLSWFQQKPGKSPETLIYRANTLVDGVPSRFSGSGSGQDYSLTISSLEYEDLGIYYCLQYAEFPYTFGGGTKLEIK
With B11 the “% Blocking GalNac Binding” value [6] was -0.3%.

B12: F(ab')2 fragment of K2E (F(ab')2)
VH: QVQLQQSAAELARPGASVKMSCKASGYTFTSYTMHWVKQRPGQGLEWIGYISPSSGYTEYNQKFKDKTTLTADKSSSTAYMQLSSLTSEDSAVYYCARKFDYWGQGTTLTVSS
VL: DIKMTQSPSSMYASLGERVTITCKASQDINSYLSWFQQKPGKSPKTLIYRANRLVDGVPSRFSGSGSGQDFSLTISSLEYEDMGIYYCLQYDEFPFTFGSGTKLEIK
B12 was tested, and the “% Blocking GalNac Binding” value [6] was 10%.

B13: F(ab')2 fragment of J4F (F(ab')2)
VH: QVQLQQSGDDLVKPGASVKLSCKASGYTFTSYWINWIKQRPGQGLEWIGRIVPGSGSTYYNEMFKDKATLTVDTSSSTAYIQLSSLSSEDSAVYFCARKPNFDVWGAGTTVTVSS
VL: DIVMTQSQKFMSTSVGDRVSVTCKASQNVGTNVAWYQQKPGQSPKAVIYSASYRFSGVPDRLTGSGSGTDFTLTITNVQSEDLAEYFCQQYNSYPLTFGAGTKLELK
With B13 the “% Blocking GalNac Binding” value [6] was -32.1%.

B14: F(ab')2 fragment of ASGR1 mAb-C (F(ab')2)
VH: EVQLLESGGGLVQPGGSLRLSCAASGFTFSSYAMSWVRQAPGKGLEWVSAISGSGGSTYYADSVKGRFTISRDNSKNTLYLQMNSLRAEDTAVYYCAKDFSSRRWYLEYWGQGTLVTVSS
VL: SSELTQDPAVSVALGQTVRITCQGDSLRSYYASWYQQKPGQAPVLVIYGKNNRPSGIPDRFSGSSSGNTASLTITGAQAEDEADYYCNSLERIGYLSYVFGGGTKLTVL
modifications: F(ab')2 fragment: two Fab arms joined at the hinge, with the Fc removed.
For B14, the “% Blocking GalNac Binding” value [6] was -5.4%.

B15: hzG2D-17 (antibody, human IgG1, kappa, V domains shown)
VH: QVQLVQSGAEVKKPGASVKVSCKASGYTFTGYYMHWVRQAPGQRLEWMGRINPNNGATNYNQNFKDKASLTVDTSASTAYMELSSLRSEDTAVYYCARVNFYYWGQGTTLTVSS
VL: DIKMTQSPSSMYASLGERVTITCKASQVINSYLSWFQQKPGKSPETLIYRANTLVDGVPSRFSGSGSGQDYSLTISSLEYEDLGIYYCLQYAEFPYTFGGGTKLEIKR
notes: humanized VH with the mouse G2D VL
B15: binds [8].
